Source: patent publication US6322962A, “Sterol-regulated Site-1 protease and assays of modulators thereof” (Board of Regents, The University of Texas System, priority 1999, dated 2001)

B1: Site-B mutant: S1P with amino acids 134-137 mutated from RSLK to AAAA (protein)
chain: MKLINIWLLLLVVLLCGKKHLGDRLGKKAFEKASCPSCSHLTLKVEFSSTVVEYEYIVAFNGYFTAKARNSFISSALKSSEVDNWRIIPRNNPSSDYPSDFEVIQIKEKQKAGLLTLEDHPNIKRVTPQRKVFAAAAFAESDPIVPCNETRWSQKWQSSRPLRRASLSLGSGFWHATGRHSSRRLLRAIPRQVAQTLQADVLWQMGYTGANVRVAVFDTGLSEKHPHFKNVKERTNWTNERTLDDGLGHGTFVAGVIASMRECQGFAPDAELHIFRVFTNNQVSYTSWFLDAFNYAILKKIDVLNLSIGGPDFMDHPFVDKVWELTANNVIMVSAIGNDGPLYGTLNNPADQMDVIGVGGIDFEDNIARFSSRGMTTWELPGGYGRVKPDIVTYGAGVRGSGVKGGCRALSGTSVASPVVAGAVTLLVSTVQKRELVNPASVKQALIASARRLPGVNMFEQGHGKLDLLRAYQILSSYKPQASLSPSYIDLTECPYMWPYCSQPIYYGGMPTIVNVTILNGMGVTGRIVDKPEWRPYLPQNGDNIEVAFSYSSVLWPWSGYLAISISVTKKAASWEGIAQGHIMITVASPAETEAKNGAEHTSTVKLPIKVKIIPTPPRSKRVLWDQYHNLRYPPGYFPRDNLRMKNDPLDWNGDHVHTNFRDMYQHLRSMGYFVEVLGAPFTCFDATQYGTLLMVDSEEEYFPEEIAKLRRDVDNGLSLVIFSDWYNTSVMRKVKFYDENTRQWWMPDTGGANIPALNELLSVWNMGFSDGLYEGEFALANHDMYYASGCSIAKFPEDGVVITQTFKDQGLEVLKQETAVVENVPILGLYQIPAEGGGRIVLYGDSNCLDDSHRQKDCFWLLDALLQYTSYGVNPPSLSHSGNRQRPPSGAGLAPPERMEGNHLHRYSKVLEAHLGDPKPRPLPACPHLSWAKPQPLNETAPSNLWKHQKLLSIDLDKVVLPNFRSNRPQVRPLSPGESGAWDIPGGIMPGRYNQEVGQTIPVFAFLGAMVALAFFVVQISKAKSRPKRRRPRAKRPQLTQQTHPPRTPSV
B2: Site B+C mutant: S1P containing both the Site-B and Site-C mutations (protein)
chain: DGGRSEQKLISEEDLNGEQKLISEEDLNGEQKLISEEDLNSSGRLGKKAFEKASCPSCSHLTLKVEFSSTVVEYEYIVAFNGYFTAKARNSFISSALKSSEVDNWRIIPRNNPSSDYPSDFEVIQIKEKQKAGLLTLEDHPNIKRVTPQRKVFAAAAFAESDPIVPCNETRWSQKWQSSRPLVAASLSLGSGFWHATGRHSSAAAAAAIPRQVAQTLQADVLWQMGYTGANVRVAVFDTGLSEKHPHFKNVKERTNWTNERTLDDGLGHGTFVAGVIASMRECQGFAPDAELHIFRVFTNNQVSYTSWFLDAFNYAILKKIDVLNLSIGGPDFMDHPFVDKVWELTANNVIMVSAIGNDGPLYGTLNNPADQMDVIGVGGIDFEDNIARFSSRGMTTWELPGGYGRVKPDIVTYGAGVRGSGVKGGCRALSGTSVASPVVAGAVTLLVSTVQKRELVNPASVKQALIASARRLPGVNMFEQGHGKLDLLRAYQILSSYKPQASLSPSYIDLTECPYMWPYCSQPIYYGGMPTIVNVTILNGMGVTGRIVDKPEWRPYLPQNGDNIEVAFSYSSVLWPWSGYLAISISVTKKAASWEGIAQGHIMITVASPAETEAKNGAEHTSTVKLPIKVKIIPTPPRSKRVLWDQYHNLRYPPGYFPRDNLRMKNDPLDWNGDHVHTNFRDMYQHLRSMGYFVEVLGAPFTCFDATQYGTLLMVDSEEEYFPEEIAKLRRDVDNGLSLVIFSDWYNTSVMRKVKFYDENTRQWWMPDTGGANIPALNELLSVWNMGFSDGLYEGEFALANHDMYYASGCSIAKFPEDGVVITQTFKDQGLEVLKQETAVVENVPILGLYQIPAEGGGRIVLYGDSNCLDDSHRQKDCFWLLDALLQYTSYGVNPPSLSHSGNRQRPPSGAGLAPPERMEGNHLHRYSKVLEAHLGDPKPRPLPACPHLSWAKPQPLNETAPSNLWKHQKLLSIDLDKVVLPNFRSNRPQVRPLSPGESGAWDIPGGIMPGRYNQEVGQTIPVFAFLGAMVALAFFVVQISKAKSRPKRRRPRAKRPQLTQQTHPPRTPSV
B3: S1P-A: amino acids 23-1052 of SEQ ID NO:1 (protein)
chain: DRLGKKAFEKASCPSCSHLTLKVEFSSTVVEYEYIVAFNGYFTAKARNSFISSALKSSEVDNWRIIPRNNPSSDYPSDFEVIQIKEKQKAGLLTLEDHPNIKRVTPQRKVFRSLKFAESDPIVPCNETRWSQKWQSSRPLRRASLSLGSGFWHATGRHSSRRLLRAIPRQVAQTLQADVLWQMGYTGANVRVAVFDTGLSEKHPHFKNVKERTNWTNERTLDDGLGHGTFVAGVIASMRECQGFAPDAELHIFRVFTNNQVSYTSWFLDAFNYAILKKIDVLNLSIGGPDFMDHPFVDKVWELTANNVIMVSAIGNDGPLYGTLNNPADQMDVIGVGGIDFEDNIARFSSRGMTTWELPGGYGRVKPDIVTYGAGVRGSGVKGGCRALSGTSVASPVVAGAVTLLVSTVQKRELVNPASVKQALIASARRLPGVNMFEQGHGKLDLLRAYQILSSYKPQASLSPSYIDLTECPYMWPYCSQPIYYGGMPTIVNVTILNGMGVTGRIVDKPEWRPYLPQNGDNIEVAFSYSSVLWPWSGYLAISISVTKKAASWEGIAQGHIMITVASPAETEAKNGAEHTSTVKLPIKVKIIPTPPRSKRVLWDQYHNLRYPPGYFPRDNLRMKNDPLDWNGDHVHTNFRDMYQHLRSMGYFVEVLGAPFTCFDATQYGTLLMVDSEEEYFPEEIAKLRRDVDNGLSLVIFSDWYNTSVMRKVKFYDENTRQWWMPDTGGANIPALNELLSVWNMGFSDGLYEGEFALANHDMYYASGCSIAKFPEDGVVITQTFKDQGLEVLKQETAVVENVPILGLYQIPAEGGGRIVLYGDSNCLDDSHRQKDCFWLLDALLQYTSYGVNPPSLSHSGNRQRPPSGAGLAPPERMEGNHLHRYSKVLEAHLGDPKPRPLPACPHLSWAKPQPLNETAPSNLWKHQKLLSIDLDKVVLPNFRSNRPQVRPLSPGESGAWDIPGGIMPGRYNQEVGQTIPVFAFLGAMVALAFFVVQISKAKSRPKRRRPRAKRPQLTQQTHPPRTPSV
B4: S1P-B: amino acids 138-1052 of SEQ ID NO:1 (protein)
chain: FAESDPIVPCNETRWSQKWQSSRPLRRASLSLGSGFWHATGRHSSRRLLRAIPRQVAQTLQADVLWQMGYTGANVRVAVFDTGLSEKHPHFKNVKERTNWTNERTLDDGLGHGTFVAGVIASMRECQGFAPDAELHIFRVFTNNQVSYTSWFLDAFNYAILKKIDVLNLSIGGPDFMDHPFVDKVWELTANNVIMVSAIGNDGPLYGTLNNPADQMDVIGVGGIDFEDNIARFSSRGMTTWELPGGYGRVKPDIVTYGAGVRGSGVKGGCRALSGTSVASPVVAGAVTLLVSTVQKRELVNPASVKQALIASARRLPGVNMFEQGHGKLDLLRAYQILSSYKPQASLSPSYIDLTECPYMWPYCSQPIYYGGMPTIVNVTILNGMGVTGRIVDKPEWRPYLPQNGDNIEVAFSYSSVLWPWSGYLAISISVTKKAASWEGIAQGHIMITVASPAETEAKNGAEHTSTVKLPIKVKIIPTPPRSKRVLWDQYHNLRYPPGYFPRDNLRMKNDPLDWNGDHVHTNFRDMYQHLRSMGYFVEVLGAPFTCFDATQYGTLLMVDSEEEYFPEEIAKLRRDVDNGLSLVIFSDWYNTSVMRKVKFYDENTRQWWMPDTGGANIPALNELLSVWNMGFSDGLYEGEFALANHDMYYASGCSIAKFPEDGVVITQTFKDQGLEVLKQETAVVENVPILGLYQIPAEGGGRIVLYGDSNCLDDSHRQKDCFWLLDALLQYTSYGVNPPSLSHSGNRQRPPSGAGLAPPERMEGNHLHRYSKVLEAHLGDPKPRPLPACPHLSWAKPQPLNETAPSNLWKHQKLLSIDLDKVVLPNFRSNRPQVRPLSPGESGAWDIPGGIMPGRYNQEVGQTIPVFAFLGAMVALAFFVVQISKAKSRPKRRRPRAKRPQLTQQTHPPRTPSV
B5: S1P-C: amino acids 187-1052 of SEQ ID NO:1 (protein)
chain: RAIPRQVAQTLQADVLWQMGYTGANVRVAVFDTGLSEKHPHFKNVKERTNWTNERTLDDGLGHGTFVAGVIASMRECQGFAPDAELHIFRVFTNNQVSYTSWFLDAFNYAILKKIDVLNLSIGGPDFMDHPFVDKVWELTANNVIMVSAIGNDGPLYGTLNNPADQMDVIGVGGIDFEDNIARFSSRGMTTWELPGGYGRVKPDIVTYGAGVRGSGVKGGCRALSGTSVASPVVAGAVTLLVSTVQKRELVNPASVKQALIASARRLPGVNMFEQGHGKLDLLRAYQILSSYKPQASLSPSYIDLTECPYMWPYCSQPIYYGGMPTIVNVTILNGMGVTGRIVDKPEWRPYLPQNGDNIEVAFSYSSVLWPWSGYLAISISVTKKAASWEGIAQGHIMITVASPAETEAKNGAEHTSTVKLPIKVKIIPTPPRSKRVLWDQYHNLRYPPGYFPRDNLRMKNDPLDWNGDHVHTNFRDMYQHLRSMGYFVEVLGAPFTCFDATQYGTLLMVDSEEEYFPEEIAKLRRDVDNGLSLVIFSDWYNTSVMRKVKFYDENTRQWWMPDTGGANIPALNELLSVWNMGFSDGLYEGEFALANHDMYYASGCSIAKFPEDGVVITQTFKDQGLEVLKQETAVVENVPILGLYQIPAEGGGRIVLYGDSNCLDDSHRQKDCFWLLDALLQYTSYGVNPPSLSHSGNRQRPPSGAGLAPPERMEGNHLHRYSKVLEAHLGDPKPRPLPACPHLSWAKPQPLNETAPSNLWKHQKLLSIDLDKVVLPNFRSNRPQVRPLSPGESGAWDIPGGIMPGRYNQEVGQTIPVFAFLGAMVALAFFVVQISKAKSRPKRRRPRAKRPQLTQQTHPPRTPSV

Columns and labels:
furin = conditions: cited from earlier work
SREBP-2 = test: Immunoblot of cleavage of HSV-tagged SREBP-2 in transfected SRD-12B cells; format: cell-based, hamster; conditions: for cleavage of SREBP-2 by S1P or S1P mutant: SRD-12B cells, HSV-tagged SREBP-2
Protocol: On day 0, SRD-12B cells were set up at a density of 6×10^5 cells/60-mm dish in medium B. On day 1, cells were transfected with 4 μg of the indicated plasmid DNA plus 12 μl of LipofectAMINE™ reagent (Life Technologies) according to the manufacturer's instructions with modifications as follows. LipofectAMINE™/DNA complexes were formed in 1 ml of serum-free medium for 15 min at room temperature, and 0.5 ml were added to 1 ml of serum-free medium per dish. […] After incubation at 37 ° C. for 20 h, the cells received N-acetyl-leucinal-leucinal norleucinal (ALLN) at a final concentration of 25 μg/ml. […] After boiling for 5 min, the proteins were subjected to SDS-PAGE and transferred to Hybond-C Extra nitrocellulose filters (Amersham). The filters were incubated with the antibodies described in the figure legends. […] Gels were calibrated with prestained molecular weight markers (New England Biolabs, Beverly, Mass.). Filters were exposed to X-Omat Blue XB-1 film (Kodak, Rochester, N.Y.) with intensifying screens at room temperature for the indicated time.
Cell membranes and nuclear extracts were subjected to electrophoresis and blotted with an antibody against the HSV epitope-tag.
In a more direct test for S1P catalytic activity, the mutant plasmids were transfected into the SRD-12B cells together with pTK-HSV-BP2. Membranes and nuclear extracts were subjected to SDS-PAGE and blotted with an antibody against the HSV-tagged SREBP-2 (FIG. 9B).
The inventors cotransfected cDNAs encoding wild-type S1P or one of the mutants. Cell membrane pellets and nuclear extracts were subjected to SDS-PAGE. and the NH2 -terminus of SREBP-2 was visualized by immunoblotting with anti-HSV (FIG. 16A).

Molecule	cleavage of SREBP-2 by S1P or S1P mutant (SREBP-2)	also measured
furin: subtilisin-like protease, literature comparator		Kcat (furin in a similar assay) (furin; Molloy et al., 1992): 1.6 mol/min per mol of enzyme; pH optimum (furin; furin and the prohormone convertases, Nakayama, 1997): 6-7
O=C(O)CN(CCN(CC(=O)O)CC(=O)O)CC(=O)O [EDTA]		inhibition of furin (furin; Nakayama, 1997, Molloy et al., 1992): totally inhibited
B1	weak activity	expression level required for SREBP-2 cleavage, compared to wild-type S1P (SREBP-2; pTK plasmids, FIG. 16): > 10 -fold
B2	no detectable cleaved nuclear form	
B3	inactive	
B4	active	
B5	active	
